Measured values reported in patent publication US20210198657A1 (TRUSTEES OF BOSTON COLLEGE, published 2021).
Non-standard residues stand in square brackets, D forms with d. No end group written: not given here. *: point of attachment. APBA‑IA = cysteine S-alkylated with APBA-IA: S-[2-oxo-2-({3-[4-acetyl-3-boronophenoxy]propyl}amino)ethyl]-L-cysteine (Cm), CC(=O)c1ccc(OCCCNC(=O)C*)cc1B(O)O; FAM = 5(6)-carboxyfluorescein, amide on Dap side-chain amine; Dap = NC[C@H](N)C(=O)O

Molecular target: T1, human serum albumin (human, UniProt P02768 25-609)
T1 construct: Reagent protein; also called HSA
T1 sequence (P02768 25-609 limits assumed): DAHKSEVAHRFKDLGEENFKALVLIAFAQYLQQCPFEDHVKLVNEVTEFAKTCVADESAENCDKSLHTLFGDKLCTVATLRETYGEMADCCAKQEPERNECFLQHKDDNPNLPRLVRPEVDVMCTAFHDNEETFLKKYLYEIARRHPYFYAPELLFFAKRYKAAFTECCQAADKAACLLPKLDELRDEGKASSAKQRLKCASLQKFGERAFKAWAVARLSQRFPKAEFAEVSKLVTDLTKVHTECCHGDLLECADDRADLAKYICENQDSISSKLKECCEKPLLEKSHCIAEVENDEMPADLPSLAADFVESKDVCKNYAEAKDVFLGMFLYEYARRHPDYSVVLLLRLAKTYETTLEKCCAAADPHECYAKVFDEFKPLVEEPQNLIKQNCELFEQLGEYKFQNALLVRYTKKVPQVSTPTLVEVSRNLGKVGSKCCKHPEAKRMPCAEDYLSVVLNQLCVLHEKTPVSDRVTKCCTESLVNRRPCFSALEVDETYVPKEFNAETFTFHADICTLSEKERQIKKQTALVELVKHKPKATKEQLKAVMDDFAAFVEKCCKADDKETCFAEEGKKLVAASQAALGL
Test: fluorescence anisotropy, 500 nM peptide with varied protein concentrations in PBS pH 7.4
Description: FIGS. 16A-16B show further evaluation of the protein-enhanced bacterial staining by KAM5. (A) Flow cytometry comparison of HSA and BSA in enhancing KAM5 binding to S. aureus. (B) Assessing protein binding of KAM5 using fluorescence anisotropy, for which various concentrations of BSA or HSA were delivered to a 96-well plate (Corning 3603) in PBS (pH 7.4). Peptide was added at a final concentration of 500 nM and incubated for 1 hour. Anisotropy values were measured (Ex: 495 nm, Em: 532 nm) and plotted as an average of three trials with standard deviations. Fluorescein was used as a negative control. The results clearly show binding of KAM5 to these serum proteins.
The cell staining ability of KAM5 was also evaluated via fluorescence microscopy with a TAMRA labeled peptide. […] On the contrary, the BSA addition elicited stronger fluorescence staining of the bacteria, consistent with the flow cytometry results (FIG. 2D). […] To better understand this phenomenon, KAM5 was measured binding to these serum proteins via a fluorescence anisotropy experiment (FIGS. 16A-16B). KAM5 did show binding to both BSA and HAS at high protein concentrations, which is perhaps not surprising given these proteins display a large number of surface lysine residues.

B1: KAM5 (fluorescein/FAM labeled, APBA-IA modified): ACmVSPRSHECmGGGDap* (peptide)
peptide: AC(APBA‑IA)VSPRSHEC(APBA‑IA)GGG[Dap](FAM)-NH2
**Q.** Does B1 bind?
**A.** Result: binds
